Results from PMC9394524.

Target: Kel1 (UniProt P38853)
Assay: GFP-trap IP of Kel1-GFP, anti-FLAG blot
Conditions: reference: wild-type Sst2-3xFLAG; sites S539

binding against the reference: stronger
Substance: RGS Sst2 (from UniProt P11972) S539A
